Measured values taken from patent publication EP2014310A2 (Dyax Corporation, dated 2009).

These binders were tested against T1, human KDR-Fc fusion (R&D Systems #357-KD-050) (human, UniProt P35968 20-764) (assay: phage binding screen on KDR-Fc; class legend in paragraph 246).
T1 construct: bought
T1 sequence (P35968 20-764): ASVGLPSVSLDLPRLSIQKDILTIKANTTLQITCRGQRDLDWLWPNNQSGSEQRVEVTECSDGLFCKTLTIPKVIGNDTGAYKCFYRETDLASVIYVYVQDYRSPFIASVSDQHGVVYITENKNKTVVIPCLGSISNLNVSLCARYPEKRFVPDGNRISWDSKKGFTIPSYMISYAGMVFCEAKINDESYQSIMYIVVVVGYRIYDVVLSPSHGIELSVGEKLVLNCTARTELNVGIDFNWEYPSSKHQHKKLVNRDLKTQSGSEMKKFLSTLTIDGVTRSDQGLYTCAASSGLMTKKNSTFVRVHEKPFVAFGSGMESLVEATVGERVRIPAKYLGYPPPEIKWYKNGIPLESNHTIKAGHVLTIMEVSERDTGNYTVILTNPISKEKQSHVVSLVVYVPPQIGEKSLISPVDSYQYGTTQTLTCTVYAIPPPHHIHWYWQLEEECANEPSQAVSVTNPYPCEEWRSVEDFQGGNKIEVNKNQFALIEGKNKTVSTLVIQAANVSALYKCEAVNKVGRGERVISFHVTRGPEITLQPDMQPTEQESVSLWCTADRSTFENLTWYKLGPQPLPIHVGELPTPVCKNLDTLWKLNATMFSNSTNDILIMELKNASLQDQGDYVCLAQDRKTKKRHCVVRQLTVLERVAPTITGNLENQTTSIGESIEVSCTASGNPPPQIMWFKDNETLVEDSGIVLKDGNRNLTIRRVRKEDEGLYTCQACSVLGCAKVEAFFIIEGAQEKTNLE

Binder | binding result
KELCEDDWYYCYLM [phage isolate KELCEDDWYYCYLM] | binds
WIQCNSITGHCTSG [phage isolate WIQCNSITGHCTSG] | binds
LVMCISPEGYCYEI [phage isolate LVMCISPEGYCYEI] | binds
WIICDGNLGWCWEG [phage isolate WIICDGNLGWCWEG] | binds
TGNCQEDWYYCWYF [phage isolate TGNCQEDWYYCWYF] | binds
WLECYAEFGHCYNF [phage isolate WLECYAEFGHCYNF] | binds
WLECYTEFGHCYNF [phage isolate WLECYTEFGHCYNF] | binds
GINCYPATGKCQMG [phage isolate GINCYPATGKCQMG] | binds
GITCYSATGKCQMW [phage isolate GITCYSATGKCQMW] | binds
WIQCDRKAGRCSRG [phage isolate WIQCDRKAGRCSRG] | binds
HYECWYPEGKCYFY [phage isolate HYECWYPEGKCYFY] | binds
WYWCHHIGMYCDGF [phage isolate WYWCHHIGMYCDGF] | binds
WIECHYKTGHCIHS [phage isolate WIECHYKTGHCIHS] | binds
WEWCPIDAWECIML [phage isolate WEWCPIDAWECIML] | binds
PTWCEDDWYYCWLF [phage isolate PTWCEDDWYYCWLF] | binds
LNICKEDWYYCFLL [phage isolate LNICKEDWYYCFLL] | binds
WIECYHPDGICYHF [phage isolate WIECYHPDGICYHF] | binds
PDWCEEDWYYCWIT [phage isolate PDWCEEDWYYCWIT] | binds
WTECHYATGKCHSF [phage isolate WTECHYATGKCHSF] | binds
PEWCEVDWYYCWLL [phage isolate PEWCEVDWYYCWLL] | binds
VWECAKTFPFCHWF [phage isolate VWECAKTFPFCHWF] | binds
GVWCDMVTGWCYHG [phage isolate GVWCDMVTGWCYHG] | binds

Binder | binding result
GEQCSNLAVACCST [phage isolate GEQCSNLAVACCST] | binds
WVECWWKSGQCYEF [phage isolate WVECWWKSGQCYEF] | binds
WVECWWKYGQCYEF [phage isolate WVECWWKYGQCYEF] | binds
YVDCYYDTGRCYHQ [phage isolate YVDCYYDTGRCYHQ] | binds
WVQCASDTGKCIMG [phage isolate WVQCASDTGKCIMG] | binds
PNTCETFDLYCWWI [phage isolate PNTCETFDLYCWWI] | binds
AVTCWALTGHCVEE [phage isolate AVTCWALTGHCVEE] | binds
GITCYSDTGKCFSF [phage isolate GITCYSDTGKCFSF] | binds
GVECYKHSGMCRSW [phage isolate GVECYKHSGMCRSW] | binds
WVECFMDTGACYTF [phage isolate WVECFMDTGACYTF] | binds
SVECFMDTGACYTF [phage isolate SVECFMDTGACYTF] | binds
HWECYSDTGKCWFF [phage isolate HWECYSDTGKCWFF] | binds
SKWCEQDWYYCWLL [phage isolate SKWCEQDWYYCWLL] | binds
LIECYAHTGLCFDF [phage isolate LIECYAHTGLCFDF] | binds
RNWCEEDWYYCFIT [phage isolate RNWCEEDWYYCFIT] | binds
SNWCEEDWYYCYIT [phage isolate SNWCEEDWYYCYIT] | binds
VNWCEEDWYYCWIT [phage isolate VNWCEEDWYYCWIT] | binds
WIQCDMETGLCTHG [phage isolate WIQCDMETGLCTHG] | binds
DFNCKMIDGFCLLK [phage isolate DFNCKMIDGFCLLK] | binds
HWWCAFQPQECEYW [phage isolate HWWCAFQPQECEYW] | binds
PDWCAADWYYCYIT [phage isolate PDWCAADWYYCYIT] | binds
TITCWMDTGHCMHE [phage isolate TITCWMDTGHCMHE] | binds

Molecular target: T1, human KDR-Fc fusion (R&D Systems …)
Test: as above
Remark: another data set of the same source

Binder | binding result
GWACAKWPWGGEICQPS [phage isolate GWACAKWPWGGEICQPS] | binds
SSVCFEYSWGGEVCFRY [phage isolate SSVCFEYSWGGEVCFRY] | binds
PAQCWESNYQGIFFCDNP [phage isolate PAQCWESNYQGIFFCDNP] | binds
FSVCWEYSWGGEVCLRQ [phage isolate FSVCWEYSWGGEVCLRQ] | binds
SRVCWEYSWGGEVCYRV [phage isolate SRVCWEYSWGGEVCYRV] | binds
ASTCVFHDHPYFPMCQDN [phage isolate ASTCVFHDHPYFPMCQDN] | binds
YPGCYETSLSGVWFCADG [phage isolate YPGCYETSLSGVWFCADG] | binds
YPWCHELSDSVTRFCVPW [phage isolate YPWCHELSDSVTRFCVPW] | binds
YPWCHEHSDSVTRFCVPW [phage isolate YPWCHEHSDSVTRFCVPW] | binds
DHMCRSPDYQDHVFCMYW [phage isolate DHMCRSPDYQDHVFCMYW] | binds
WWECKREEYRNTTWCAWA [phage isolate WWECKREEYRNTTWCAWA] | binds
WRICWESSWGGEVCIGH [phage isolate WRICWESSWGGEVCIGH] | binds
PPLCYFVGTQEWHHCNPF [phage isolate PPLCYFVGTQEWHHCNPF] | binds
FGECWEYFWGGEFCLRV [phage isolate FGECWEYFWGGEFCLRV] | binds
GWCQMDAQGIWSCWAD [phage isolate GWCQMDAQGIWSCWAD] | binds
NWECGWSNMFQKEFCARP [phage isolate NWECGWSNMFQKEFCARP] | binds
DNWCEIVVEKGQWFCYGS [phage isolate DNWCEIVVEKGQWFCYGS] | binds
SRVCWEDSWGGEVCFRY [phage isolate SRVCWEDSWGGEVCFRY] | binds
GGWCQLVDHSWWWCGDS [phage isolate GGWCQLVDHSWWWCGDS] | binds
SGYCEFESDTGRWFCSSW [phage isolate SGYCEFESDTGRWFCSSW] | binds
SRVCWEYSWGGQICLGY [phage isolate SRVCWEYSWGGQICLGY] | binds
YGVCWEYSWGGEVCLRF [phage isolate YGVCWEYSWGGEVCLRF] | binds
PDTCTMWGDSGRWYCFPA [phage isolate PDTCTMWGDSGRWYCFPA] | binds
GSWCEMRQDVGKWNCFSD [phage isolate GSWCEMRQDVGKWNCFSD] | binds
NWKCEYTQGYDYTECVYL [phage isolate NWKCEYTQGYDYTECVYL] | binds
